# Reference: patent US20210024615A1 (LIVERPOOL SCHOOL OF TROPICAL MEDICINE, published 2021)
# T1: human FcγRIIB (human, UniProt P31994 46-217)
# T1 construct: also called CD32B
# T1 sequence (looked up): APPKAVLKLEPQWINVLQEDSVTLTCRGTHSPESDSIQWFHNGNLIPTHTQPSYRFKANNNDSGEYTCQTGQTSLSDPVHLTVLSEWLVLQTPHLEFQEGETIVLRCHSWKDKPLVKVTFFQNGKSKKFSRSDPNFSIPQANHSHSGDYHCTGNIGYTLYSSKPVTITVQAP
# T2: MMR (UniProt P22897 19-1383)
# T2 sequence (looked up): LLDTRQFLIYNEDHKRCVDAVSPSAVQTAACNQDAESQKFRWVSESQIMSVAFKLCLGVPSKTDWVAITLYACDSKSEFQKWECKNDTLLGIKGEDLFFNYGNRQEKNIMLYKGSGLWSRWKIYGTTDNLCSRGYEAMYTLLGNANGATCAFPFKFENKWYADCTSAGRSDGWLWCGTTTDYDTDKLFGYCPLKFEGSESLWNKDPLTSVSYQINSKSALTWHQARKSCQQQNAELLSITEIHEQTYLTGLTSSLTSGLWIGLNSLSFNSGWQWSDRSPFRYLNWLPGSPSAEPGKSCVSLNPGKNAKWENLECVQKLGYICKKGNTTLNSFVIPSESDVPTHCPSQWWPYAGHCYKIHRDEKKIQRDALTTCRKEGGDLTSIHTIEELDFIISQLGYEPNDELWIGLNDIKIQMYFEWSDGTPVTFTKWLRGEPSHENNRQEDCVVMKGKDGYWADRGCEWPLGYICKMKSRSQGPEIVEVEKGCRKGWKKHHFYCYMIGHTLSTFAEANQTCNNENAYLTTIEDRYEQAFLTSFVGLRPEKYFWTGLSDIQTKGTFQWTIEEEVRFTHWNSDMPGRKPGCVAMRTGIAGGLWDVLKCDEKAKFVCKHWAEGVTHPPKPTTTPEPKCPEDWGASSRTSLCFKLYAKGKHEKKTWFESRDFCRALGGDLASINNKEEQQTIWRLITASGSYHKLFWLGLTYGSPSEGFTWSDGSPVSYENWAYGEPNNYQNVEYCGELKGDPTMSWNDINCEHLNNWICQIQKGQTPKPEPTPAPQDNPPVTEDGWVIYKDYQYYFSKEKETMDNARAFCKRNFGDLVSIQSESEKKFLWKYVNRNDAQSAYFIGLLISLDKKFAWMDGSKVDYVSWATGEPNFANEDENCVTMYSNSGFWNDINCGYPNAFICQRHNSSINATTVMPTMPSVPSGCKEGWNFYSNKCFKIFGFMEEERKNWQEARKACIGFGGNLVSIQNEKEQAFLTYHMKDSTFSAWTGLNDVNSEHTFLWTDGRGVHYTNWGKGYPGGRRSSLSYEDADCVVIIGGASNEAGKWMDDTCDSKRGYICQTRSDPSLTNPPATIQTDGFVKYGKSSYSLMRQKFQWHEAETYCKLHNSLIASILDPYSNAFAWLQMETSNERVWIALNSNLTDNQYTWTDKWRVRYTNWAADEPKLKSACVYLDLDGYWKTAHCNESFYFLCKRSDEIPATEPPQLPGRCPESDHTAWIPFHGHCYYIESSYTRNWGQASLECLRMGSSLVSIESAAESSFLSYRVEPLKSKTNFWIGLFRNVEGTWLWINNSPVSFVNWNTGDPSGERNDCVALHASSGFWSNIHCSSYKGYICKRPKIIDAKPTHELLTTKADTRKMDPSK
# T3: clec-4a (UniProt Q9UMR7 70-237)
# T3 construct: also called DCIR
# T3 sequence (looked up): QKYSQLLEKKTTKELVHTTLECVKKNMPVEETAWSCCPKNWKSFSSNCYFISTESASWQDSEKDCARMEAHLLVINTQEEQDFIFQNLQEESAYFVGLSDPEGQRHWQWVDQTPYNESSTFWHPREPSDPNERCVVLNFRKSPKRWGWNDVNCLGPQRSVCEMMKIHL
# T4: tetrameric human DC-SIGN (human, UniProt Q9NNX6 66-404)
# T4 sequence (looked up): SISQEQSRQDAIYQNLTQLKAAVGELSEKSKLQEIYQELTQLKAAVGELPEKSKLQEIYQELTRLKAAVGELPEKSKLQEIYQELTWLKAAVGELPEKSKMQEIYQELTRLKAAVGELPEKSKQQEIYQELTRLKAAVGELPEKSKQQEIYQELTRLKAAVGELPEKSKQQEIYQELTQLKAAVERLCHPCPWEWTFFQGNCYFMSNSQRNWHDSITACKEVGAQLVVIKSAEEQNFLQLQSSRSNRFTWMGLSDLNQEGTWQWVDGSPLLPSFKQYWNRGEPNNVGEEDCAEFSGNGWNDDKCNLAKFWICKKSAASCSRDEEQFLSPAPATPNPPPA
# T5: clec-4d (UniProt Q8WXI8 39-215)
# T5 sequence (looked up): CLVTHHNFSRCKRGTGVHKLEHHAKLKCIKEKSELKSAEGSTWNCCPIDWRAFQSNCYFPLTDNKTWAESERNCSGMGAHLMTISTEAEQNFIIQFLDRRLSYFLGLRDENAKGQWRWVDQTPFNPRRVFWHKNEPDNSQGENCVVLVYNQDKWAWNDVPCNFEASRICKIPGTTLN
# T6: CD23 (UniProt P06734 48-321)
# T6 sequence (looked up): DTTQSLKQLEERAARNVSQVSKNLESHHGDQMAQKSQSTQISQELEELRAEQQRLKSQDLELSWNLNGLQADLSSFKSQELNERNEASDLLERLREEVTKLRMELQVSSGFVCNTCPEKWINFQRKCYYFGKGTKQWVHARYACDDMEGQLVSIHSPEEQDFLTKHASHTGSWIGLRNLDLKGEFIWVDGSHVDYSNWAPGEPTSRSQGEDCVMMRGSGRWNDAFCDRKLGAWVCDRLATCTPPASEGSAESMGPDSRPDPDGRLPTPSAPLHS
# T7: dectin-1 (UniProt Q9BXN2-2 66-201)
# T7 construct: also called dec-1
# T7 sequence (looked up): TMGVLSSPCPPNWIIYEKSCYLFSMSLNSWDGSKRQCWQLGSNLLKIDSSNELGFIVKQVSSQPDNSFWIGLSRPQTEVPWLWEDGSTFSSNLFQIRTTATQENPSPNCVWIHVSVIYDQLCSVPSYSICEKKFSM
# T8: human FcγRIIA (human, UniProt P12318 36-218)
# T8 sequence (looked up): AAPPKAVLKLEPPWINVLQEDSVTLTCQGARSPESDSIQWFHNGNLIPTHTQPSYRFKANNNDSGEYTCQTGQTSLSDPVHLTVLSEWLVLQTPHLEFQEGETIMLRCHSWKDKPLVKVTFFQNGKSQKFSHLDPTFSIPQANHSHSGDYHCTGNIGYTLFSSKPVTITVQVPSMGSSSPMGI
# How the values were obtained:
# Test in all cases: ELISA
# [1] = target: T1, human FcγRIIB
# [2] = target: human FcγRIIIA (human, UniProt P08637 17-208)
# [3] = target: T2, MMR
# [4] = target: T3, clec-4a
# [5] = target: T9, Siglec-2 (UniProt P20273 20-687)
# T9 construct: also called CD22
# [6] = target: T4, tetrameric human DC-SIGN
# [7] = target: MBL (UniProt P11226 21-248)
# [8] = target: T5, clec-4d
# [9] = target: T6, CD23
# [10] = target: Siglec-3 (UniProt P20138 18-259)
# [11] = target: T7, dectin-1
# [12] = target: T8, human FcγRIIA
# [13] = target: human FcγRIIIB (human, UniProt O75015 17-200)
# human FcγRIIIB, sequence (O75015 17-200 limits assumed): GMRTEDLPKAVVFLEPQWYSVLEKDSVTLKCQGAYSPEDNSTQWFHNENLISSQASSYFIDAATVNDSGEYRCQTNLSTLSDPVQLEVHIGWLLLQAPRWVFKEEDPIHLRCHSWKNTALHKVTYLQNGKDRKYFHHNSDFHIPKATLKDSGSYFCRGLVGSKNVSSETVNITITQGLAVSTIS
# MBL, sequence (P11226 21-248 limits assumed): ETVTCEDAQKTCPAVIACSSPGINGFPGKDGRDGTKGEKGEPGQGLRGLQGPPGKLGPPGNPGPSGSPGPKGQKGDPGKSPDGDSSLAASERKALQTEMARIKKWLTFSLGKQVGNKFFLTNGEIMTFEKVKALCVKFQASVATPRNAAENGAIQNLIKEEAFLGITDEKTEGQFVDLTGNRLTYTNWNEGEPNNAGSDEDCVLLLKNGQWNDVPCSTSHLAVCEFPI
# human FcγRIIIA, sequence (P08637 17-208 limits assumed): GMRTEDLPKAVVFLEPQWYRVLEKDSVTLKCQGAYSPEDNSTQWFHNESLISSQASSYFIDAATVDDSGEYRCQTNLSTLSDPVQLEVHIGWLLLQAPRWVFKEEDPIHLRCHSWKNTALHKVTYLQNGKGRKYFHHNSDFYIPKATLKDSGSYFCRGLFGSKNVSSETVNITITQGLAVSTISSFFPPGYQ
# Siglec-3, sequence (P20138 18-259 limits assumed): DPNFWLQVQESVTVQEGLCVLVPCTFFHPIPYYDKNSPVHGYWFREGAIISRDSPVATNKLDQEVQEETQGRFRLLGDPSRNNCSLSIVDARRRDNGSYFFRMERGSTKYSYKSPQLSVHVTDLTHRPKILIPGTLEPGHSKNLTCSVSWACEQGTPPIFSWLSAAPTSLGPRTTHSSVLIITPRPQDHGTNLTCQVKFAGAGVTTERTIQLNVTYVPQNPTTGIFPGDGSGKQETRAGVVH
Binder,binding result [1],binding result [2],binding result [3],binding result [4],binding result [5],binding result [6],binding result [7],binding result [8],binding result [9],binding result [10],binding result [11],binding result [12],binding result [13]
[change]/[change]/[change] (other) NKTHTCPPCPAPELLGGPSVFLFPPKPKDTLMISRTPEVTCVVVDVSHEDPEVKFNWYVDGVEVHNAKTKPREEQYNSTYRVVSVLTVCLQDWLNGKEYKCKVSNKALPAPIEKTISKAKGQPREPQVYTLPPSREEMTKNQVSLTCLVKGFYPSDIAVEWESNGQPENNYKTTPPVLDSDGSFFLYSKLTVDKSRWQQGNVFSCSVMHEALHNHYTQKSLSLSPGKLVLGPPLYAVSLVMSDTAGTAY,no binding,binds,no binding,no binding,no binding,no binding,no binding,no binding,no binding,no binding,no binding,–,–
[change]/[change]/[change]/[change] (other) NKTHTCPPCPAPELLGGPSVFLFPPKPKDTLMISRTPEVTCVVVDVSHEDPEVKFNWYVDGVEVHNAKTKPREEQYASTYRVVSVLTVCLQDWLNGKEYKCKVSNKALPAPIEKTISKAKGQPREPQVYTLPPSREEMTKNQVSLTCLVKGFYPSDIAVEWESNGQPENNYKTTPPVLDSDGSFFLYSKLTVDKSRWQQGNVFSCSVMHEALHNHYTQKSLSLSPGKLVLGPPLYAVSLVMSDTAGTAY,no binding,no binding,no binding,no binding,–,no binding,no binding,–,–,–,no binding,no binding,no binding
